Data published in a protein production outcome set (Wang et al. 2014).

Experiment: label from the status in PepcDB records

| Sequence | protein production |
| --- | --- |
| MRRLQREIRTYDEEQLKQVREELTTYDLMTRNALLQTAHDLRAKVEQEAVPEGEQATTYLKAVVDDRRHELSVFLPATQASAALENVRRHLVNQILSIGGKAKKLETERCAAERHLKRPTVEVVQREHDAHLRRLRQWQEVQSRFQTWHTYEQAYARWPDLAAAFDSGPTEAATRVATELHKRTLATMQEQDRWREFLRQATEQEHQRQLTPPEDDLPEDDLEEDTWAAAESSEPSGSLFSRLGHTLSRLMAPPGPDEVPSAATAPRETDGWDDVQPQIAPDPRSTVPGLWDDADDLTPVSPVAPARPAPSPPVYDAAAVPALDIDFSAAPRRSRTPAEQMPDPFARAARVRSARRTTTPLVPVPQQLDAAEMPAPRPARTPPGRPATAGNVAPPSAPRTARPPSPTLADFDLWDDEEDMPFGPPATPAPAAASVPQMVPTPRAAARPTPRPVSSPGPSPVPVSPASASVSHAAPWEEPAAGRPAPAPSGVSRRGATRLALPSEQLLDPLPNGARNTVQMDLDAERRGDMINETLRQFGLQAKVVDLARGPTVTRYEIEPAPGEKISRIASLSNDLARALAVGGVRVEAPVPGKSVIGLEVPNAEREPVTFHQATANPAFKNTRAKLPIILGKSIDGSMMVGDLAKMPHLLVAGSTGSGKSVCVNTLITSLLYRYLPTELRFVMIDPKMVELTPYDGIPHLVRPVVTNPADAAGVLLGAVAHMERRYKMMSQVGAKNLEQFNAKMRAVGEVELPHLVIIIDELADLMITSPKEVESAIMRLAQMARATGMHLILATQRPSVDILTSLIKVNIPARIAFAVSSSHDSRTILDTTGAERLTGMGDMLFYQPGLVKPLRLQGPYISEAESARITDELRRMMFDDDFIEAYGADFEGMISSSGPGGDRSQLDFSDPLLRQAALVCIEEGQGSVSRLQRRLSVGHARAGKLMDLLEAMNIVGPHQGSKPREVLIHEADLPEYFGK | failed |
| MRRRDARPQGTGTAGPTGARHGEDADGTPRHMNAPKGLPLWLKIVTGVVSVALVAGVAFAAFWFIRLQTNITKAPLSAGETRNAGDPLVDDKTDRLQILILGSDTRDGKNAEYGSTEDSTGYGHSDVMMLLDISADNKRVNVLSFPRDLLVDVPQCTDRTNNQTFPARSGVMINEAMAEAGIGCAVDTVNQLTGLEIDHFMMADFNAVKELSHAVGGVNVCVSDPVFDPDSRLRLAKGDSLVEGEQALAFLRTRHAFGDGGDLGRIKGQQAFLSSLTRKLKDEGTLGNPQRLLQIADVVTQNLTVDEGLASVPSLLTIGGRLKDIDVSKVAFVAVPTQAAAADINRLELIEPQASQLFAALRADLDLTTPGATAPPAPSESPAPQPTATTPPAPAYDKAIQPVAVANGSGVATRAQELMTVLTGNGFAQTVSYLANPVDQTVLYYGPGFADVAADVATLFGIPAAQVQEAPGVAGVQLYVGTDFSSGTAYGAASVPSDVVNQTANDAVCQQVNPLYIDQQ | failed |
| MRRRKAPVREVLGDPVYGNKVVTKFINKMMFDGKKSVAEKIIYKAFNKIEEKSGEKGIEVFEKALERVRPLVEVRSRRVGGATYQVPVEVRASRQQSLSIRWILEATRKRNERMMVDRLANELMDAASDKGAAFKKKEDVHKMAEANKAFAHYRW | failed |
| MRRRRRRDGFYLAPDFRHREAEDMAGVFDIDLDQPEDAGSEDELEEGGQLNESMDHGGVGPYELGMEHCEKFEISETSVNRGPEKIRPECFELLRVLGKGGYGKVFQVRKVTGANTGKIFAMKVLKKAMIVRNAKDTAHTKAERNILEEVKHPFIVDLIYAFQTGGKPYLILEYLSG | not failed |
| MRRSMRMNMSVASNIHSLLARLLPERVIAPPAPAGRRQRLFSGVGLPSQRSLLVNRLDEANDLQAVYVDLRRQALQGSVSALNDLGWIWLNGKYWRADTVLAGHLLRMAALQGNAAAWFNLGQQHYFGKGIDPSYVQAAECYRQAFDRGMLHAAAALGDLYEEEVCDGDLEWQVDLVQAYQWFLRGAEQGEARCRFEMGYRLMHGLHVEANLKAALYWLELAAAAGVVQAAEELAVHFSSRDAVRYQEWRDRAVQMGSTLALTMKLEDQIHP | failed |
| MRRTVRYILATSNPMGDLEALEKFVKLAPDTGADAIALIGNLMPKAAKSRDYAAFFRILSEAHLPTAYVPGPQDAPIWEYLREAANVELVHPEMRNVHETFTFWRGPYLVAGVGGEIADEGEPEEHEALRYPAWVAEYRLKALWELKDYPKIFLFHTMPYHKGLNEQGSHEVAHLIKTHNPLLVLVAGKGQKHEMLGASWVVVPGDLSEGEYSLLDLRARKLETGNVR | not failed |
| MRSDGRKEDQLRPVSIQRDFLEYPEGSCLISFGKTKVICTASVIENVPNWLKGKGQGWITAEYSMLPRATQQRTIRESVQGRIGGRTHEIQRMIGRAMRTAVELTKIGERTIWVDCDVIQADGGTRTAAITGAFVAVADAIIKLHKEGIIEETPIKDFVAAVSVGIVNDRILLDLNFEEDSAAQVDMNVVGTGSGRLSEVHTMGEEYSFTKDELIKMLDLAQKGINELIELQKKLYVIQDGKWERSELKEVSSTT | not failed |
| MRSGKIASEEYKDNPLTSCGTVRYWAAAKAAAGRHEETFTASTLSDLLEQVRQKYEGNAAMLAVLARSSFLVNATPVGVRPHHEVVLEPGWIVEVLPPFAGG | failed |
| MRSIRLRVDWRATASLLGTVLKYLAVALLVPLTVAVIYWEDIWVFAVAIAITVTLGFTLERLDPEPDMGPAEALLLVTVSWLAVAMVGSVPYLLAGYGTASTLANPVNALFESMSGFTTTGATVMGEISTDQHSHALLLWRQLTQWLGGMGIIVLMIAILPELAVNGAQLMKTEAPGPELQKLTPRIAETARVLWLVYFGFTVLLAALLYGLHLAGFAPNMHLYNAVAHAFTTLPTGGFSPESDSIAAFSAVVQWVIIPFMVIAGTNFALFWHLLDGDIRTLLNDAEFRVYAGAIAVLSAILAALLYGGAAPAQELGGTTAGNTENALRQAAFQVGSLMNSTGFATSDFAQWGPTAQALLLFTMFVGGSAGSTGGGIKVIRWLVVMKAIRRELSVTARPEAVKPVRLGGYVVDEDVVRGIMVFTLLYLALFGAATVFFAVDSLRVGYELSVLEAMSASIATLGNIGPGFGMLGPFGSYLGFPPETKIVMVFLMWVGRLEIIPVLAVFTGAFWKR | failed |
| MRSNHLPCWHTGPLSTLNVRPHLARAWHPLVCIYQRCLATALPTAPAVDSYCISTEIPYYDLVGRLGGKGPSKQTFTMQMLFHKKQRTPLGFCDGLDNVFVGFGSKDEKGCRPPKYHASYAPYYPIHKAASMGDVNTVKSFVERGVFAMEQTDWKYRTALHFACVYGHPEVVTLLVESSCEISPKDIKDATPLIKASQCRQTECLNILLKHGADPNIMDCSDNTALHYAVYNGDIETATKLLEYKANIEAINENKITPLLLALKQNKEKMAEFLIHNGANAKTCDFLGRSSLMYAVRCGSELIIKLLLQRDIDTFKQDVFGWTAKRYAVESKSRVRKLLIDYDEEELRQRCSVPKLSSSSLKELCLDSHYDRNTNISNTGKTREKFSQCTLWEEEHPILPTVKVKDSPRSEAVEKAEARPSKSESNEEDTCTTPTLPTTKVKDPSQSEAVEKAEARPSKSGKLTV | failed |
| MRSNYAKKLVAGTLVASMTITASMPLFADELATEIPSAGAAVIVEDYINNSGKETDIEKLLPTEATDSTATANETTKTENQTEKTQTSNTATSSEDKLFANIAITKVSGGAEDYVNVRKKPTTESKVVGKIYNNSGAKILEKTNNGWYKIVSGNCTGYIKSDFFVTGSSAKSRALDNGYVQAEAKDAIHVRAEASTNSKVVTNVYKNETYTIKKFDKTGEWIKVKIKAGVSGWISAQYANVNINMETAITRKIEKAKIKKEREAAKAAAKAAAEEEARKQAEQQEQQASNDNSQSSSDGTYSNSSNSSSRSNYSNSSSSSSSSSSSSSSSSSKKSHSSSSSSSSGSGTGAAIVAYAKQFLGNPYVYGGASLTNGTDCSGFTMSVYAHFGYGLSRSSYTQVNNGRAVSMSSLQPGDLLFYKYGGSTISHVAIYIGGGQIIHASTEETGIIISGMGSPCAARRIIG | failed |
| MRSPIKLEFSEKYDKDHAREYFLKHQDGLARRLSHKRDEQLARRALALAGEPGLVLDLPCGAGRFWPLLAEKPNRVIIGADNSEAMIETACAAQPPEVVARVRPLQTSAFAIDLPDNAVDSIFCMRLFHHIGESAHRKTILSEFQRVSRDSVILSLWVDGNFKAWRRKKLEQRRSAKAEQDNYQNRFVLPAETVEEEFRAAGFRIQERLDFLPFYAMWRVYVLRKG | failed |
